Measurements: the supplement of paper PMC10065799, “High-throughput profiling of sequence recognition by tyrosine kinases and SH2 domains using bacterial peptide display” (eLife, 2023)

Columns and labels:
[1] = biological target: Grb2 SH2 (UniProt P62993); assay: SH2 binding enrichment of the phosphorylated peptide, bacterial display (enrichment ratio); higher = better substrate or ligand; peptides without Tyr show the background
[2] = biological target: SHP2-C SH2; assay: as above
[3] = biological target: c-Src SH2; assay: as above
[4] = biological target: Hck (UniProt P08631); assay: phosphorylation enrichment, bacterial display (enrichment ratio); higher = better substrate or ligand; peptides without Tyr show the background
Chain of Hck (P08631 whole entry, looked up): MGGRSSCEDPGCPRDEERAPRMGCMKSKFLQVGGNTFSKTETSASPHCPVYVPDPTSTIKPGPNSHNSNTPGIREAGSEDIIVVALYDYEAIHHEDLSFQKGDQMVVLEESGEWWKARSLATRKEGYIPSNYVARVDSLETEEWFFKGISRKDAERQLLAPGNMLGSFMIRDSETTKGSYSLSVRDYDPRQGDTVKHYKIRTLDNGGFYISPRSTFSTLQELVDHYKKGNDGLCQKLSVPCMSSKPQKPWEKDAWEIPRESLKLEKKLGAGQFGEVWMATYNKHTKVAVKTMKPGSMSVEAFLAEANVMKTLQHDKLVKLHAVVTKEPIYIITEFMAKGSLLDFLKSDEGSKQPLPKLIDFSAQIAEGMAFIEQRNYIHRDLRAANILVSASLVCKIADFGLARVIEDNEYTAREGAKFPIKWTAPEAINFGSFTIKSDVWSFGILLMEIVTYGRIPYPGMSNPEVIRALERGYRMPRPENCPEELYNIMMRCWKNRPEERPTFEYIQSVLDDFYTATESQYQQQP

[5] = biological target: FGFR1 (UniProt P11362); assay: as above
[6] = biological target: Fyn (UniProt P06241); assay: as above
Chain of Fyn (P06241 whole entry, looked up): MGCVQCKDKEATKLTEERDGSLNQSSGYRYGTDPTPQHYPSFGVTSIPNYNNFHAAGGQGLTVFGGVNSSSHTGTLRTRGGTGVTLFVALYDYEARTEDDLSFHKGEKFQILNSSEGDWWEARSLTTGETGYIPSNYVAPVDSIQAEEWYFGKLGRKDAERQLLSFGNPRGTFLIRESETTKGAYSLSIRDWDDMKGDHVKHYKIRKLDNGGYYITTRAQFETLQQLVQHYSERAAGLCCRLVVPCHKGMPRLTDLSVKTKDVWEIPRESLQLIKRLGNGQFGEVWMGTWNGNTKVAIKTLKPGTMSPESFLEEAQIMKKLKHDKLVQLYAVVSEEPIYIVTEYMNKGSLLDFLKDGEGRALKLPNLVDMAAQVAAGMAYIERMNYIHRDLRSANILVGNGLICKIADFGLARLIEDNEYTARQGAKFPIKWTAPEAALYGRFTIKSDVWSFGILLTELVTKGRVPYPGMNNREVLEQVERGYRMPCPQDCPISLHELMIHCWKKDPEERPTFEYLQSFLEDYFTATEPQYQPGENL

[7] = tested on: AncSZ; assay: as above
[8] = tested on: Fer (mouse); assay: as above
[9] = tested on: c-Src; assay: as above
[10] = biological target: Jak2 (UniProt O60674); assay: as above
Chain of Jak2 (O60674 whole entry, looked up): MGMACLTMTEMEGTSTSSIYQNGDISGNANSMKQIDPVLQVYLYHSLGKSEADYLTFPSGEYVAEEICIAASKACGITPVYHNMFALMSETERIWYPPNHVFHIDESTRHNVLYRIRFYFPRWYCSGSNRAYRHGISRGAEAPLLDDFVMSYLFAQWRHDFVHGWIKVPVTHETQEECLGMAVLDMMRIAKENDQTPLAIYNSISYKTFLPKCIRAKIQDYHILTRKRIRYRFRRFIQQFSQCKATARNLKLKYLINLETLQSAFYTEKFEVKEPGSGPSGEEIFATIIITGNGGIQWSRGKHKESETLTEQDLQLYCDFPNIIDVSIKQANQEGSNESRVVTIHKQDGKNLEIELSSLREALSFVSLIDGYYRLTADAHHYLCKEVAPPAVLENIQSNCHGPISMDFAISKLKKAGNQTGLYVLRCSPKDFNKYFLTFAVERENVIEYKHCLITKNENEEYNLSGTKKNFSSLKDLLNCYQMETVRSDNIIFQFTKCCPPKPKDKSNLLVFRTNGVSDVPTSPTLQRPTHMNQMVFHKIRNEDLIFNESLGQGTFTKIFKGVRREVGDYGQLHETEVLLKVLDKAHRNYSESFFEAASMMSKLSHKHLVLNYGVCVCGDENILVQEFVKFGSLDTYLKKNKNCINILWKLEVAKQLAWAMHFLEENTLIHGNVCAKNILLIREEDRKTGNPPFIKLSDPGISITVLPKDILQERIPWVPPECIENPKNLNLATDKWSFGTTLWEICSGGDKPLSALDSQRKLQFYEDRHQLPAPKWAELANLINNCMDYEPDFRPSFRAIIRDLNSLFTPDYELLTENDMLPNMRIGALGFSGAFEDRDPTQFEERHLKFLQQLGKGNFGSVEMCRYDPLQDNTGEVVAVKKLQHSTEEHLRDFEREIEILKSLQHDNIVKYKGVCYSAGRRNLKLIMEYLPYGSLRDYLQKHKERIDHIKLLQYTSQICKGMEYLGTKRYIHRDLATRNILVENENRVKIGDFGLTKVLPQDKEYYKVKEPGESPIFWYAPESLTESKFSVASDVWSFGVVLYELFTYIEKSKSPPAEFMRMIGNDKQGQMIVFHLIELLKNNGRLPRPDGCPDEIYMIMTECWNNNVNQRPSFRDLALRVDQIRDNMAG

[11] = biological target: FGFR3 (UniProt P22607); assay: as above
[12] = biological target: EPHB2 (UniProt P29323); assay: as above
Chain of EPHB2 (P29323 whole entry, looked up): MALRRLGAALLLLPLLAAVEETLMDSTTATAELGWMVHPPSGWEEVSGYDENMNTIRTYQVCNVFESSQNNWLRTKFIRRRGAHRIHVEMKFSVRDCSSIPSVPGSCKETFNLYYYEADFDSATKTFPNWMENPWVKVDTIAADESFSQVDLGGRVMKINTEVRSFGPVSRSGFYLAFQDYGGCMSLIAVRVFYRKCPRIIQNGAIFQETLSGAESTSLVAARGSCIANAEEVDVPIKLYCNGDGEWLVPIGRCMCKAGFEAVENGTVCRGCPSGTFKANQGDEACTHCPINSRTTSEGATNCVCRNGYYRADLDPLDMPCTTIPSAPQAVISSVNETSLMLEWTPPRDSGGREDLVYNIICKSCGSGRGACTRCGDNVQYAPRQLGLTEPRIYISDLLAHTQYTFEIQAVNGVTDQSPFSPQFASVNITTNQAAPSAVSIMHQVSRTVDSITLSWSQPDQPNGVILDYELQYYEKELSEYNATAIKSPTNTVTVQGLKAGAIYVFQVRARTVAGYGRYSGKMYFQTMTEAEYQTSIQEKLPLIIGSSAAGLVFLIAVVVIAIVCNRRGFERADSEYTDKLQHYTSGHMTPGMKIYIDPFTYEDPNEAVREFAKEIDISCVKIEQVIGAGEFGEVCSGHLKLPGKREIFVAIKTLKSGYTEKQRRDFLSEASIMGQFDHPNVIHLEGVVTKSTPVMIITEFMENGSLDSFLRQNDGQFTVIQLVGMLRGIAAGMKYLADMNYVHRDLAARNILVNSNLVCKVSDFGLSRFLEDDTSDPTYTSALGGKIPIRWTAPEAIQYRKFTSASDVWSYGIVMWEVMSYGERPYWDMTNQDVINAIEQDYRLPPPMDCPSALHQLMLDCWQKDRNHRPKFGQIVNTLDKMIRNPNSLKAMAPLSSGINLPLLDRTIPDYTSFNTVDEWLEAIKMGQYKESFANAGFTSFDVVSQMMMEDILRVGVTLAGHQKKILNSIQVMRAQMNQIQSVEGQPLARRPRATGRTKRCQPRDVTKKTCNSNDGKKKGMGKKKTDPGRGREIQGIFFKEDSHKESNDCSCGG

[13] = biological target: EPHB1 (UniProt P54762); assay: as above
Chain of EPHB1 (P54762 whole entry, looked up): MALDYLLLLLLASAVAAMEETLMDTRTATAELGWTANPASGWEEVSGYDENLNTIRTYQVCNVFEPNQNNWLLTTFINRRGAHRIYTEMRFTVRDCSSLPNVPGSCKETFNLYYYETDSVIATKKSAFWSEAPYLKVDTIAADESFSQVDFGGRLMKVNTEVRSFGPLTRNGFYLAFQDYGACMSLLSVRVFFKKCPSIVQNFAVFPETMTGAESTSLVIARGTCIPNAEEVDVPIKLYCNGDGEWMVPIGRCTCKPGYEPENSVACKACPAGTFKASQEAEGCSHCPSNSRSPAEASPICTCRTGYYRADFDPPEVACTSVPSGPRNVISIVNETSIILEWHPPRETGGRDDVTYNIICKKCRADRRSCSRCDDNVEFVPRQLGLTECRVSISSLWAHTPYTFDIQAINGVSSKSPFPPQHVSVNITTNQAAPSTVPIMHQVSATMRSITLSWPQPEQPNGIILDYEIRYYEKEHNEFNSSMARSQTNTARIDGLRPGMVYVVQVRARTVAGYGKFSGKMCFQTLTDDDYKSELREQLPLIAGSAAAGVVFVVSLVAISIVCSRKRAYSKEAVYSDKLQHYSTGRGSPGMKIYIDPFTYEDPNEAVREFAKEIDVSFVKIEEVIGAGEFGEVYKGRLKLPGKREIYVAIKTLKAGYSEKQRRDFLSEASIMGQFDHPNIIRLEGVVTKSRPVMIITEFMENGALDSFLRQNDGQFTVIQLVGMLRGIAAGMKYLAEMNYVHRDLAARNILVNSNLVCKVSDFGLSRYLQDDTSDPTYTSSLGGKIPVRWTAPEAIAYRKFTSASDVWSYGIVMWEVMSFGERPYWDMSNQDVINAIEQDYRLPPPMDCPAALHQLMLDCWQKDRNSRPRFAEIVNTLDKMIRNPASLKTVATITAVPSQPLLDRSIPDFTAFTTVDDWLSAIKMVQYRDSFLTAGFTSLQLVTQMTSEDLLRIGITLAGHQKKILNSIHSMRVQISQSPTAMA

[14] = biological target: Fes (UniProt P07332); assay: as above
Chain of Fes (P07332 whole entry, looked up): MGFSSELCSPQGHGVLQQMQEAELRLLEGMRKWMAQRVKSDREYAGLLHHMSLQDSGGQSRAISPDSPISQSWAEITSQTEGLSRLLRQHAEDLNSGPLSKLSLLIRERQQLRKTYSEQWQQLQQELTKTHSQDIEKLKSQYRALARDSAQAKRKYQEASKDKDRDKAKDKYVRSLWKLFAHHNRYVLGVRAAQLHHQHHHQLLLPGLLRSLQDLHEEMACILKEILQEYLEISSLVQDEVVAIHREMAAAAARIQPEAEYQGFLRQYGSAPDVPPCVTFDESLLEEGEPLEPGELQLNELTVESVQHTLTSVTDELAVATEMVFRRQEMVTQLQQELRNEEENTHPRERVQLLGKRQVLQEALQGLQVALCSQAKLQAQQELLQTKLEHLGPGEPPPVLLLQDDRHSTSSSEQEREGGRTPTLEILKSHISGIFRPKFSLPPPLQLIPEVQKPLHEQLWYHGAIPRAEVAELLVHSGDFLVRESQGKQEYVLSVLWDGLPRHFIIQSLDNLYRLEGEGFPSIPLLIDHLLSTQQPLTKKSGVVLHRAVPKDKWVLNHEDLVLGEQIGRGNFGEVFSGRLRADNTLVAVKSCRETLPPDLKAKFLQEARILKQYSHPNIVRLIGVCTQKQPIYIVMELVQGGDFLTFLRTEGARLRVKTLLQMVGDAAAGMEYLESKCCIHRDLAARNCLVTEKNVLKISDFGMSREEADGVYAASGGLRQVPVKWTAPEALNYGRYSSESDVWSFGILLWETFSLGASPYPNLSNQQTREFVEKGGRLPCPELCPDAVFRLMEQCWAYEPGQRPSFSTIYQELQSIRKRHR

[15] = biological target: MERTK (UniProt Q12866); assay: as above
[16] = tested on: c-Abl (mouse); assay: as above
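Throughout, for SH2 binding enrichment of the phosphorylated peptide, bacterial display: peptide library displayed on the E. coli surface as eCPX fusions, selected cells deep-sequenced, score is each peptide's frequency after selection divided by its frequency in the input.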
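Throughout, for phosphorylation enrichment, bacterial display: 11-residue human phosphosite peptides and single-mutation variants displayed on the E. coli surface, counted by deep sequencing, each peptide's frequency after selection divided by its frequency in the unselected input library; frequency after pTyr selection over input frequency; kinase dosed for 20-30% of maximal phosphorylation in three min.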

SH2 binding enrichment [1]	SH2 binding enrichment [2]	SH2 binding enrichment [3]	Sequence	phosphorylation enrichment [4]	phosphorylation enrichment [5]	phosphorylation enrichment [6]	phosphorylation enrichment [7]	phosphorylation enrichment [8]	phosphorylation enrichment [9]	phosphorylation enrichment [10]	phosphorylation enrichment [11]	phosphorylation enrichment [12]	phosphorylation enrichment [13]	phosphorylation enrichment [14]	phosphorylation enrichment [15]	phosphorylation enrichment [16]
0.863	1.59	1.92	KHMADYPDCKY [SOX11_Y113_Y116C]	0.55	0.635	0.251	0.65	0.504	0.368	1.07	1.31	0.783	0.483	1.01	0.375	1.36
0.802	0.495	0.459	KKILCYIQGGS [HYDIN_Y4610_N4606K]	0.521	0.439	0.499	1.31	0.58	0.411	1.17	0.758	0.609	0.611	1.46	0.549	1.07
0.642	0.636	0.342	KLMTEYKRRKQ [ARFGEF3_Y2029_K2031R]	0.521	0.677	0.544	0.661	0.573	0.526	0.458	0.646	0.496	0.477	0.572	0.536	0.503
1.13	0.909	1.12	KMTGRYEMYAR [UPB1_Y362]	0.549	0.523	0.476	0.828	0.438	0.416	0.674	0.487	0.627	0.58	0.789	0.428	0.54
0.707	0.999	14.3	KNNDGYIDFAE [MCFD2_Y135_YF]	0.513	0.556	0.406	0.921	0.559	0.395	0.903	0.725	0.483	0.492	1.06	0.377	0.663
0.783	0.535	0.771	KPFRVYCDMNT [FGB_Y269_YF]	0.513	0.597	0.493	1.22	0.593	0.414	1.31	0.773	0.72	0.933	1.3	0.409	0.886
1.01	1.19	0.854	KRAAIYNPVIF [RHO_Y301_S297R_YF]	4.07	0.492	1.91	0.725	10.4	2.22	0.738	0.541	0.55	0.432	0.841	2.69	0.741
0.673	1.03	0.441	KSIEEYLKLVG [RASAL2_Y381]	0.51	0.528	0.404	0.772	0.409	0.438	0.775	0.48	0.581	0.468	0.962	0.372	0.521
0.9	0.726	0.551	KTNVSYCGALD [CACNB4_Y103]	0.503	0.494	0.381	0.778	0.46	0.469	0.754	0.643	0.508	0.564	0.834	0.389	0.745
0.934	0.697	0.651	KVMANYMFKAG [MAML2_Y513_YF]	0.342	0.412	0.344	0.638	0.394	0.414	0.519	0.418	0.744	0.448	0.675	0.432	0.556
0.906	0.838	2.01	KVPCHYDDPGK [FOXG1_Y246_R244C]	0.793	0.412	0.437	0.827	0.86	0.443	0.717	0.598	0.527	0.469	0.943	0.412	0.707
0.949	0.676	0.525	KVQVSYKGDTK [HSPA1A_Y107_E110D]	0.392	0.425	0.372	0.491	0.328	0.473	0.5	0.378	0.36	0.299	0.598	0.414	0.615
1.19	0.899	1.28	LADKPYTFEYY [FXN_Y118_D122Y]	0.707	1.08	1.77	1	0.833	2.68	1.25	0.969	0.719	0.782	1.08	0.52	0.802
0.823	0.83	0.684	LADMNYVHCDL [EPHB2_Y742_R745C]	0.469	0.811	0.57	1.01	0.535	0.369	0.728	1.09	0.578	0.889	0.97	0.448	0.652
1.38	0.874	1.2	LAGRFYALRSM [CKB_Y174_K177R_YF]	0.821	0.598	0.737	1.29	0.843	0.571	0.59	1.84	0.944	0.583	1.92	0.509	0.642

The next lines start with the sequence.

Sequence	SH2 binding enrichment [1]	SH2 binding enrichment [2]	SH2 binding enrichment [3]	phosphorylation enrichment [4]	phosphorylation enrichment [5]	phosphorylation enrichment [6]	phosphorylation enrichment [7]	phosphorylation enrichment [8]	phosphorylation enrichment [9]	phosphorylation enrichment [10]	phosphorylation enrichment [11]	phosphorylation enrichment [12]	phosphorylation enrichment [13]	phosphorylation enrichment [14]	phosphorylation enrichment [15]	phosphorylation enrichment [16]
KIKLNYTLPQD [NRAP_Y523_N519I]	0.965	0.751	0.774	0.462	0.48	0.454	0.965	0.513	0.454	0.721	0.623	0.447	0.49	0.88	0.53	0.531
KLKEKYEKDIA [HMGB1_Y155]	1.23	0.769	0.656	0.473	0.536	0.537	0.704	0.55	0.507	0.784	0.452	0.495	0.418	0.82	0.663	0.647
KLYRVYCDMNT [FGB_Y269_P265L]	0.868	0.715	1.22	0.623	0.452	0.608	0.978	0.52	0.549	0.838	0.693	0.702	0.769	1.07	0.466	0.696
KQLGEYKFQNA [ALB_Y425_E420K]	0.897	1.04	0.565	0.375	0.468	0.395	0.507	0.306	0.358	0.525	0.417	0.386	0.348	0.565	0.399	0.4
KRYRIYHLATS [BRCA2_Y3009]	0.791	0.493	1.34	0.432	0.487	0.445	0.564	0.313	0.508	0.336	0.509	0.461	0.456	0.491	0.322	0.402
KSPDSYQKILF [ATM_Y1415_L1420F]	1.26	1.75	1.96	0.406	0.509	0.484	0.567	0.338	0.632	0.6	0.427	0.464	0.468	0.517	0.585	0.511
KTVQDYLKKFY [MMP8_Y36_E38K]	1	0.606	0.438	0.438	0.428	0.366	0.571	0.325	0.421	0.517	0.382	0.398	0.396	0.687	0.454	1.42
KVGPGYLGSRG [RET_Y826_G830R]	1	0.769	0.588	0.327	0.318	0.329	0.402	0.328	0.366	0.439	0.339	0.345	0.302	0.55	0.457	0.444
KVWGIYDCQQP [CYP3A7_Y75]	0.78	0.761	0.472	6.28	0.687	7.28	1.56	2.48	4.49	1.14	0.772	2.3	6.6	1.61	4.76	0.998
KWHREYNSKFV [RICTOR_Y835_YF]	1.11	1.18	1.19	0.371	0.371	0.364	0.556	0.422	0.334	0.581	0.49	0.391	0.35	0.623	0.37	0.555
KWRGQYDVANK [BTK_Y425_I429N]	1.08	0.957	1.2	0.445	0.439	0.359	0.533	0.446	0.376	0.6	0.57	0.396	0.381	0.705	0.387	0.594
KYLENYYDLKK [MMP3_Y41]	1.02	0.73	0.775	2.16	7.68	2.24	0.922	0.513	1.15	0.782	4.8	2.77	7.15	0.99	0.709	0.736
LANNEYYFRVC	0.539	0.562	0.42	0.794	3.72	0.743	1.6	0.62	0.516	1.51	3.11	0.993	0.682	1.27	0.823	0.573
LDPDSYNVFEN [FOXC1_Y159_M161V]	0.74	0.752	1.59	0.613	0.527	0.643	2.1	0.742	0.915	2.3	1.31	0.703	0.728	2.2	1.04	1.93
LDVDVYGPSVP [NUBPL_Y109]	0.868	0.551	0.498	1.77	0.483	1.47	1.06	1.2	1.33	0.829	0.72	0.536	0.622	1.28	0.498	1.4
LEITWYPFDVE [RIPOR2_Y316]	0.961	0.884	0.801	0.691	0.679	0.751	1.49	0.827	0.704	2.3	1.55	1.05	1.21	2.12	0.461	1.25
LERDIYNREEF [HLA-DPB1_Y59_Y57D]	0.841	1.07	0.678	1.17	1.03	1.23	1.19	0.672	1.18	1.3	0.906	0.718	0.706	1.62	0.49	1.39
LERYIYNREEY [HLA-DPB1_Y59_F64Y]	1.08	0.642	1.8	1.72	0.726	1.77	1.08	0.519	3.15	0.998	0.903	0.982	0.568	1.25	0.719	0.752
